Source: PMC5027247 (2016)
Read-outs that look alike come from different tables or passages of the source.

Assays:
Assay in all cases: ITC
OPTN(26–119) E50K [1] = biological target: T1, OPTN(26–119) E50K (human, UniProt Q96CV9 26-119, E50K)
Target sequence in this assay (Q96CV9 26-119 E50K): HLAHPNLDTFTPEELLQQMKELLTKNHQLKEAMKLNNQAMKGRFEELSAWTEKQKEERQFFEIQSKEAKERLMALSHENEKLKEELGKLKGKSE

OPTN(26–119) E50K [2] = biological target: T1, OPTN(26–119) E50K; remark: listed apart in the source
TBK1 CTD V700Q [3] = biological target: T2, TBK1 CTD V700Q (human, UniProt Q9UHD2 677-729, V700Q)
T2 sequence: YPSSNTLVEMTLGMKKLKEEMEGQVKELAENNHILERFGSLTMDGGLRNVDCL

TBK1 CTD(E696K) [4] = biological target: T3, TBK1 CTD(E696K) (human, UniProt Q9UHD2 677-729, E696K)
T3 sequence: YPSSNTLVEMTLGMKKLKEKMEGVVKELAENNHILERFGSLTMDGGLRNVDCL

TBK1 CTD V700Q [5] = biological target: T2, TBK1 CTD V700Q; remark: listed apart in the source
TBK1 CTD(E696K) [6] = biological target: T3, TBK1 CTD(E696K); remark: listed apart in the source

Row | Binder | Kd (OPTN(26–119) E50K [1]) | Kd (OPTN(26–119) E50K [2]) | Kd (TBK1 CTD V700Q [3]) | Kd (TBK1 CTD(E696K) [4]) | Kd (TBK1 CTD V700Q [5]) | Kd (TBK1 CTD(E696K) [6])
1 | TBK1 CTD (residues 677–729) (domain or fragment) YPSSNTLVEMTLGMKKLKEEMEGVVKELAENNHILERFGSLTMDGGLRNVDCL | 100 nM | 100 nM | – | – | – | –
2 | SSDNMQHAYWELKREMSNLHLVTQVQAELLRKLKTSTAIK (domain or fragment) [NAP1 TBD (residues 215–254)] | – | – | 6060 nM | 660 nM | 6060 nM | 660 nM
